Measured values published in US20200264197A1 (FRAUNHOFER GESELLSCHAFT ZUR F RDERUNG DER ANGEWANDTEN …, published 2020).
Numbered stars: 1 amine (or outer) side, 2 acyl side, 3 side chain; on linkers, the order of the positions; unused ones are H or OH. Square brackets hold non-standard residues; d marks the D form. Ends that are not written are not given here. βAsp = O=C(O)[C@H](CC(=O)[*:2])N[*:1]; pGlu = O=C1CC[C@@H](C(=O)O)N1

T1: isod7-Aβ(1-17) (human, D-isoaspartate at position 7)
T1 construct: also called D-isoaspartate isomer containing peptide derivative
T1 peptide: DAEFRHXSGYEVHHQKL

T2: Aβ(1-18) (human)
T2 construct: also called wildtype peptide Aβ(1-18)
T2 peptide: DAEFRHDSGYEVHHQKLV

T3: pE3-Aβ(3-18)
T3 peptide: [pGlu]FRHDSGYEVHHQKLV

T4: Mouse isoD7-Aβ(1-18) (mouse)
T4 peptide: DAEFGH[βAsp]SGFEVRHQKLV

T5: pE3-isoD7-Aβ(3-18)
T5 peptide: [pGlu]FRH[βAsp]SGYEVHHQKLV


What was measured:
Aβ(1-30) = molecular target: T6, Aβ(1-30); experiment: sandwich ELISA: K11 immobilised at 2 µg/ml as capture, peptide serially diluted, HRP-conjugated 4G8 as detection, absorbance 450/540 nm
T6 construct: also called non-modified Aβ peptide
T6 sequence (peptide, as listed by the source): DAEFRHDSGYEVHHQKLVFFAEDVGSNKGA
Method: FIG. 8: Sandwich ELISA for quantification of isoAsp7-Aβ and total Aβ concentrations in biological samples. Capture antibodies K11 (A) and 3D6 (B) were diluted to 2 μg/ml and immobilized on microtiter plates overnight at 4° C. Blocking occurred for 2 hours at room temperature. isoD7-Aβ(1-30) (SEQ ID NO: 51) and Aβ(1-30) (SEQ ID NO: 52) were serially diluted and added to the wells in duplicate. After an incubation period of 2 hours at 4° C., plates were washed six times with TBS-T. HRP-conjugated anti Aβ antibody clone 4G8 was added in a final concentration of 1 μg/ml and incubated for 1 hour at 4° C. After washing with TBS-T, a color reaction with TMB was performed and stopped by the addition of 1.2 N H₂SO₄. The standard curve was calculated from measured absorption at 450/540 nm by a 4-Parameter-Logistic-Fit: y=(A2+(A1−A2)/(1+(x/x₀)\hat{ }p).
In order to determine the amounts of isoD7-Aβ in biological samples, an indirect Sandwich ELISA was established. Therefore, K11 was diluted in PBS to 2μg/ml and immobilized on polystyrene 96-well microtiter plates overnight at 4° C. Blocking occurred for 2 hours at 4° C. with ELISA Blocker (Thermo Fisher Scientific). […] Absorption at 450/540 nm was determined by a Tecan Sunrise plate reader. The standard curve was calculated from measured absorption by a 4-Parameter-Logistic-Fit: y=(A2+(A1−A2)/(1+(x/x0)\hat{ }p).

isod7-Aβ(1-17) = molecular target: T1, isod7-Aβ(1-17); experiment: SPR, antibody captured on goat anti-mouse IgG, peptide as analyte; SPR
Method: (§1) FIG. 2: Determination of binding constants of immobilized K11 with different Aβ-peptides by SPR analysis. 1,500-2,000 RU of antibody K11 were immobilized on a CMS chip by binding to goat anti mouse IgG. Monomeric Aβ peptides were injected in varying concentrations. KD values were calculated by using single-cycle kinetic analysis of BIAevaluation software. A—isoD7-Aβ(1-18) was applied at 1 nM, 3 nM, 9 nM, 27 nM, 81 nM and 243 nM. B—isod7-Aβ(1-17) was applied at 1 nM, 3 nM, 9 nM, 27 nM, 81 nM and 243 nM. C—Aβ(1-18) was applied at […], 30 nM, 90 nM, 270 nM, 810 nM and 2430 nM.
(§2) In order to bind analyzing antibodies K11 and K119 to a CMS sensor Chip (GE Healthcare, Product code BR100012), approximately 15,000-20,000 RU of goat anti mouse IgG (Thermo Fisher Scientific, PA1 28555) were immobilized first. To immobilize the anti-mouse IgG, the carboxymethylated dextran surface of the sensor chip was activated by mixing 0.1 M N-hydroxysuccinimide (NHS) with 0.4 M N-ethyl-N′-(dimethylaminopropyl)carbodiimide hydrochloride (EDC) 1:1. EDC/NHS was applied to the sensor chip for 10 minutes with a flow rate of 10 μl/min. Goat anti mouse IgG was diluted to 50 μg/ml in 10 mM Sodium acetate, pH 5.5 and injected for 2×3 minutes with a flow rate of 10 μl/min. […]

Aβ(1-18) [1] = molecular target: T2, Aβ(1-18); experiment: as above
Method: as §1, §2

isoD7-Aβ(1-40) = molecular target: T7, isoD7-Aβ(1-40) (isoAsp at position 7); experiment: SPR, antibody captured on goat anti-mouse IgG, peptide as analyte
T7 construct: Synthetic peptide
T7 sequence (peptide, as listed by the source): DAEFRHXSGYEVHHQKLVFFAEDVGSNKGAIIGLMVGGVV
Excerpt: (§3) In order to bind analyzing antibodies K11 and K119 to a CMS sensor Chip (GE Healthcare, Product code BR100012), approximately 15,000-20,000 RU of goat anti mouse IgG (Thermo Fisher Scientific, PA1 28555) were immobilized first. To immobilize the anti-mouse IgG, the carboxymethylated dextran surface of the sensor chip was activated by mixing 0.1 M N-hydroxysuccinimide (NHS) with 0.4 M N-ethyl-N′-(dimethylaminopropyl)carbodiimide hydrochloride (EDC) 1:1. EDC/NHS was applied to the sensor chip for 10 minutes with a flow rate of 10 μl/min. Goat anti mouse IgG was diluted to 50 μg/ml in 10 mM Sodium acetate, pH 5.5 and injected for 2×3 minutes with a flow rate of 10 μl/min. After deactivation with 1 M ethanolamine, pH 8.5 for 2×7 minutes with a flow rate of 10 μl/min, 0.1 M glycine, pH 1.7 was applied to the sensor chip with a flow rate of 30 μl/min for 3 minutes, followed by a washing step with HBS-EP buffer (GE Healthcare, Product code BR100188).
(§4) Binding of about 2,000 RU anti isoAsp7-Aβ antibodies occurred with a flow rate of 10 μl/min. To achieve this, antibodies were diluted to 25 μg/ml in HBS-EP buffer and applied to the sensor chip, followed by washing with HBS-EP until the RU signal remains constant.
(§5) Kinetic constants were determined by applying Aβ peptides at different concentrations and calculated from the combined set of data by using BIAevaluation software (Biacore AB) (FIG. 2A and FIG. 3).

pE3-Aβ(3-18) = molecular target: T3, pE3-Aβ(3-18); experiment: as above
Excerpt: as §3, §4, §5

Aβ(1-40) = molecular target: T8, Aβ(1-40); experiment: as above
T8 construct: Synthetic peptide; also called wildtype Aβ(1-40)
T8 sequence (peptide, as listed by the source): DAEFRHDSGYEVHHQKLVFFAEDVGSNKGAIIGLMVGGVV
Excerpt: as §3, §4, §5

Mouse isoD7-Aβ(1-18) = molecular target: T4, Mouse isoD7-Aβ(1-18); experiment: as above
Excerpt: as §3, §4, §5

pE3-isoD7-Aβ(3-18) = molecular target: T5, pE3-isoD7-Aβ(3-18); experiment: as above
Excerpt: as §3, §4, §5

Aβ(1-18) [2] = molecular target: T2, Aβ(1-18); experiment: SPR, antibody captured on goat anti-mouse IgG, peptide as analyte; SPR; very weak, KD 931,000 nM
Excerpt: as §3
Binding of about 2,000 RU anti isoAsp7-Aβ antibodies occurred with a flow rate of 10 μl/min. […]
as §5

Binder | binding result (Aβ(1-30)) | Kd (isod7-Aβ(1-17)) | Kd (Aβ(1-18) [1]) | Kd (isoD7-Aβ(1-40)) | Kd (pE3-Aβ(3-18)) | Kd (Aβ(1-40)) | Kd (Mouse isoD7-Aβ(1-18)) | Kd (pE3-isoD7-Aβ(3-18)) | Kd (Aβ(1-18) [2])
monoclonal antibody K11 (antibody, mouse IgG1, kappa, V domains shown, Mouse monoclonal antibody from a hybridoma; also called clone K11; anti isoAsp7-Aβ antibody K11) VH: QVQLKESGPGLVAPSQSLSITCTVSGFSLTSYGVHWVRQPPGKGLEWLGALWASGNTDYSSTLMSRLSISKDNSKSQVFLKMNSLQTDDTAMYYCARDRGILTGGYFDVWGAGTTVTVSS VL: DIVMSQSPTSLAVSAGEKVTMSCKSSQSLLNSRNRKNYLAWYQQKPGQSPKLLIYWASTRDSGVPDRFTGSGSGTDFTLTISSVQAEDLAVYYCKQSYNLRTFGGGTKLEIKR | no binding (tested: 140 pg/ml) | 2690 nM | 2700 nM | 3.5 nM | 402 nM | 1670 nM | 153 nM | 1.7 nM | 
monoclonal antibody K119 (antibody, mouse IgG2a, kappa, V domains shown, Mouse monoclonal antibody from a hybridoma) VH: EVKLVESGGGLVQPGGSLRLSCATSGFTFTDYYMSWVRQPPGKALEWLGFIRNKANGYTTEYSASVKGRFTISRDNSQSILYLQMNTLRTEDSATYYCTRDIPTIMDYWGQGTSVTVSS VL: DIVMSQSPSSLAVSAGEKATMSCKSSQSLFNSRTRKNYVAWLQQKPGQSPKLLISWASTRESGVPDRFTGSGSGTDFALTITNVQAEDLAVYYCKQSYNLRAFGGGTKLEITR |  |  |  |  |  |  |  |  | 931000 nM
